Experimental data as given in patent US20130295106A1 (ONCOMED PHARMACEUTICALS, published 2013).

Experiments:
Assay in all cases: flow cytometry, HEK293 cells transiently co-transfected with FZD expression vector and GFP
[1] = target: T1, human FZD4 expressed on transfected HEK293 cells (human, UniProt Q9ULV1 37-537)
T1 sequence: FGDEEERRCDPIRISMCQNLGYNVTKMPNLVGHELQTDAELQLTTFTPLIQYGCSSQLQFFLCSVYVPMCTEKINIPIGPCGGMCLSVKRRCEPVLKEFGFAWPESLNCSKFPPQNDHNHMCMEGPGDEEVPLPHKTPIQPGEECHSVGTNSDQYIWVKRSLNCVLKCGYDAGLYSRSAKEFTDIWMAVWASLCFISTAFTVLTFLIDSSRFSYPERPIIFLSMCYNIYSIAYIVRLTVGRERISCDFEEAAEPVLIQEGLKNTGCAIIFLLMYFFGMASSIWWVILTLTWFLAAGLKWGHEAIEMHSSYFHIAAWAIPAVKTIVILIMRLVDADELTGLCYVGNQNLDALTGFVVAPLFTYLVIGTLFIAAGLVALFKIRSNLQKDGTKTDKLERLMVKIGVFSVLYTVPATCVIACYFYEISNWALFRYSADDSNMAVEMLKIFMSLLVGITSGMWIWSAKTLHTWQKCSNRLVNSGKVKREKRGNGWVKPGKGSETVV
Method: (§1) To measure antibody binding to FZD by flow cytometry HEK293 cells were co-transfected with FZD expression vectors and the transfection marker GFP. Twenty-four to forty-eight hours post-transfection, cells were collected in suspension and incubated on ice with anti-FZD antibodies (10 μg/ml unless otherwise indicated) or control IgG to detect background antibody binding. The cells were washed and primary antibodies detected with Fc domain-specific secondary antibodies conjugated to a fluorescent chromophore (e.g. phycoerythrin conjugated anti-human IgG). Labeled cells were then analyzed by flow cytometry to identify anti-FZD antibodies that specifically recognize cell surface expression of FZD protein. Monoclonal antibodies 18R5 and 18R8 recognized FZD on transfected cells. As shown in FIG. 1 and FIG. 2, both 18R8 and 18R5 bind to multiple FZD including FZD1, FZD2, FZD5, FZD7, and FZD8. To examine the relative ability of 18R8 and 18R5 to bind to each FZD protein, titration analysis was conducted wherein the amount of antibody in the binding reaction was varied (FIG. 2).

[2] = target: T2, human FZD9 expressed on transfected HEK293 cells (human, UniProt O00144 23-591)
T2 sequence: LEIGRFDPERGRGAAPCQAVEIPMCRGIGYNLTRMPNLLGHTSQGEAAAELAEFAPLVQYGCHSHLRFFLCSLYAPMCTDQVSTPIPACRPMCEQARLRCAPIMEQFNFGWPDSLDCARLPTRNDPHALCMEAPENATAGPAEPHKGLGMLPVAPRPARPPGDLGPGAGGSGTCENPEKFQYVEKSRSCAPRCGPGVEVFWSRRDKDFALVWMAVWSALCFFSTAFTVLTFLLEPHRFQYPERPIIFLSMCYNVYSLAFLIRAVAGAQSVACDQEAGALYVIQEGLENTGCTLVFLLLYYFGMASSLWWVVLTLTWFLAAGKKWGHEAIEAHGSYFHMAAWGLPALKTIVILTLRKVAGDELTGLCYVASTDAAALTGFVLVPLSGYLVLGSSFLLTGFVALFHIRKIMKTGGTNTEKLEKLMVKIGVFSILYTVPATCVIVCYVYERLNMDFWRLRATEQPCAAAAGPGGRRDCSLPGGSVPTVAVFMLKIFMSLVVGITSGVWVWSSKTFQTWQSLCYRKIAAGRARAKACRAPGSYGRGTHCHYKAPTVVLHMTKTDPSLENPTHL
Method: as §1

[3] = target: T3, human FZD10 expressed on transfected HEK293 cells (human, UniProt Q9ULW2 21-581)
T3 sequence: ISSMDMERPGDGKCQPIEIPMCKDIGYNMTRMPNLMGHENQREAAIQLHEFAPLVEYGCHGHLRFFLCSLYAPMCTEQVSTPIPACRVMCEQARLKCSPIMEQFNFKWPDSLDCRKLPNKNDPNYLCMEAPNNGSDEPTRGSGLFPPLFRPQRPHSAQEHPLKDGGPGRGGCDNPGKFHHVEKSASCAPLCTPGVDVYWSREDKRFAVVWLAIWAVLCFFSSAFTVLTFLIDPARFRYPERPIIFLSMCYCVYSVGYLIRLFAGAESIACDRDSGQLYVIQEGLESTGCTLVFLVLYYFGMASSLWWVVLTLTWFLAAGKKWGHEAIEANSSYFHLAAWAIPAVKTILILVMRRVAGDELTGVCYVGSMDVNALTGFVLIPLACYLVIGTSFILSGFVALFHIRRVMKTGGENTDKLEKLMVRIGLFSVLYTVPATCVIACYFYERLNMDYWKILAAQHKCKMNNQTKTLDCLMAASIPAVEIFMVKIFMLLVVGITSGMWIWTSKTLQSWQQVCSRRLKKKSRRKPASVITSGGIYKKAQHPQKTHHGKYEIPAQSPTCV
Method: as §1

Measured: binding result

B1: 18R8 IgG antibody (human IgG2, lambda) (antibody, V domains shown)
VH: EVQLVESGGGLVQPGGSLRLSCAASGFTFSHYTLSWVRQAPGKGLEWVSVISGDGSYTYYADSVKGRFTISSDNSKNTLYLQMNSLRAEDTAVYYCARNFIKYVFANWGQGTLVTVSS
VL: DIELTQPPSVSVAPGQTARISCSGDKLGKKYASWYQQKPGQAPVLVIYEKDNRPSGIPERFSGSNSGNTATLTISGTQAEDEADYYCSSFAGNSLEVFGGGTKLTVLG
notes: Expressed in CHO cells, protein A purified; also called 18R8 IgG2 antibody; anti-FZD antibody 18R8
no binding (tested: 10 ug/ml): [1] | [2] | [3]
